Patent publication US20070141139A1, “COMPOSITION FOR INTESTINAL DELIVERY” (priority 2000, published 2007)

How the values were obtained:
coho salmon = settings: orally intubated with rbGH and antacid, 7-week trial; cited from earlier work
[1] = cited from earlier work
[2] = in vivo; cited from earlier work
[3] = in vivo; cited from earlier work; remark: listed apart in the source
[4] = in vivo; cited from earlier work; remark: listed apart in the source
[5] = tested on: proteolytic enzymes, enzyme extract of proximal small intestine; test: In vitro proteolytic enzyme inhibition by feed ingredients (casein hydrolysis); format: biochemical, rainbow trout; settings: increasing level of inhibitor inclusion; FIGS. 5-12
Protocol: • 1. Centrifuge Sorvall model • 2. Bench-top blender • 3. Dissecting material (scissors) • 4. Centrifuge bottle • 5. Disposable cuvettes for spectrophotometer • 6. Microcentrifuge tubes 1,5 ml • 7. Spectrophotometer • 8. Vortexer • 9. Microplates reader from Biorad • 10. 50 mM Tris-HCl pH=7.5 • 11. Commassie blue staining solution • 12. BSA (1 mg\ml) standard solution • 13. TCA 20% • 14. Rainbow trouts pancreatic and duodenal tissues • 15. 0.5% casein in 50 mM Tris-HCl pH=9 • 16. 50 mM Tris-HCl+CaCl2 10 mM pH=7.5 Enzyme Extract • 1. Rainbow trout were weighed and sacrificed. • 2. Dissection was performed to remove the proximal small intestine from the fish. • 3. After weighing, the tissues were homogenised in 50 mM Tris-HCl ph=7.5 (1:10 w\v). • 4. Centrifuge at 16000×g for 30 min at 4° C. • 5. Keep the supernatant. Aliquot and store them at −20 C for further use. • 6. Perform Commassie assay to measure the amount of protein present in the enzyme extract. Commassie Blue Stain Protocol • 1. Weigh 160 mg of BSA in 10 ml of […] Tris-HCl pH=7.5. • 2. […] Read at 655 nm with the microplate reader from Biorad. […] Centrifuge at 12000×g for 5 min and read at 280 nm. […] Centrifuge at 12000×g for 5 min and read at 280 nm. […] Centrifuge at 12000×g for 5 min and read at 280 nm. […] Centrifuge at 12000×g for 5 min and read at 280 nm. […] Centrifuge at 12000×g for 5 min and read at 280 nm. […]

salmonids = settings: in vivo; cited from earlier work
rainbow trout = test: Growth of rainbow trout after intraperitoneal injection of recombinant bST; format: in vivo, Oncorhynchus mykiss; settings: IP, 20 μg bST/g live body weight weekly for 6 weeks; FIG. 4
Protocol: Intraperitoneal (IP) administration dose per fish weekly was 20 μg bST/g live body weight for 6 weeks.

Question: With `CCCCCCCCC(=O)N(C)C[C@H](O)[C@@H](O)[C@H](O)[C@H](O)CO` [Mega-9, reference compound] as the molecule, how does the “growth performance compared to fish dosed with GH alone” value (coho salmon) read?
Answer: Its value is “significantly increases growth performance”.

Question: And the “plasma HRP presence compared to controls” value ([1]; co-delivery with HRP)?
Answer: The value was “almost double”.

Question: Which “effect upon HRP absorption” value [2] does the source give for `CC[C@@]1([C@@H]2O[C@@H]([C@H]3O[C@@](O)(CO)[C@H](C)C[C@@H]3C)C[C@@H]2C)CC[C@H]([C@]2(C)CC[C@]3(C[C@H](O)[C@@H](C)[C@@H]([C@@H](C)[C@@H](OC)[C@H](C)C(=O)O)O3)O2)O1` [monensin] here?
Answer: Its value is “no effect upon HRP absorption”.

Question: With “horseradish peroxidase: tracer protein, horseradish peroxidase type 1 (Sigma)” as the molecule, how does the “time to transport to the circulation after oral administration” value [3] read?
Answer: Its value is no more than 1 h.

Question: For “human growth hormone: human growth hormone given with a suspension of sodium salicylate in oil”, which “bioavailability (with reference to intravenous)” value [4] is on record?
Answer: The value was 10-20%.

B1: soya bean trypsin inhibitor: enzyme inhibitor co-delivered with HRP to rainbow trout (protein, UniProt P01070 25-205, looked up)
Trypsin inhibitor A: DFVLDNEGNPLENGGTYYILSDITAFGGIRAAPTGNERCPLTVVQSRNELDKGIGTIISSPYRIRFIAEGHPLSLKFDSFAVIMLCVGIPTEWSVVEDLPEGPAVKIGENKDAMDGWFRLERVSDDEFNNYKLVFCPQQAEDDKCGDIGISIDHDDGTRRLVVSKNKPLVVQFQKLDKESL
Question: Which “oral absorption of HRP” value ([1]; in vivo, po) does the source give for B1 here?
Answer: Its value is “increased”.

B2: lyophylized ovalbumin: protease inhibitor component of the Oralject™ cocktail (protein, UniProt P01012 2-386, looked up)
Ovalbumin: GSIGAASMEFCFDVFKELKVHHANENIFYCPIAIMSALAMVYLGAKDSTRTQINKVVRFDKLPGFGDSIEAQCGTSVNVHSSLRDILNQITKPNDVYSFSLASRLYAEERYPILPEYLQCVKELYRGGLEPINFQTAADQARELINSWVESQTNGIIRNVLQPSSVDSQTAMVLVNAIVFKGLWEKAFKDEDTQAMPFRVTEQESKPVQMMYQIGLFRVASMASEKMKILELPFASGTMSMLVLLPDEVSGLEQLESIINFEKLTEWTSSNVMEERKIKVYLPRMKMEEKYNLTSVLMAMGITDVFSSSANLSGISSAESLKISQAVHAAHAEINEAGREVVGSAEAGVDAASVSEEFRADHPFLFCIKHIATNAVLFFGRCVSP
modifications: lyophilized
Question: Which “in vitro proteolytic enzyme inhibition” value [5] does the source give for B2 here?
Answer: The value was “affect to differing degrees the inhibition”.

B3: spray-dried ovalbumin: protease inhibitor component of the Oralject™ cocktail (protein, UniProt P01012 2-386, looked up)
Ovalbumin: GSIGAASMEFCFDVFKELKVHHANENIFYCPIAIMSALAMVYLGAKDSTRTQINKVVRFDKLPGFGDSIEAQCGTSVNVHSSLRDILNQITKPNDVYSFSLASRLYAEERYPILPEYLQCVKELYRGGLEPINFQTAADQARELINSWVESQTNGIIRNVLQPSSVDSQTAMVLVNAIVFKGLWEKAFKDEDTQAMPFRVTEQESKPVQMMYQIGLFRVASMASEKMKILELPFASGTMSMLVLLPDEVSGLEQLESIINFEKLTEWTSSNVMEERKIKVYLPRMKMEEKYNLTSVLMAMGITDVFSSSANLSGISSAESLKISQAVHAAHAEINEAGREVVGSAEAGVDAASVSEEFRADHPFLFCIKHIATNAVLFFGRCVSP
modifications: spray-dried
Question: For B3, which “in vitro proteolytic enzyme inhibition” value [5] is on record?
Answer: The value was “affect to differing degrees the inhibition”.

B4: bovine GH (bGH): bovine growth hormone (protein, UniProt P01246 27-217, looked up)
Somatotropin: AFPAMSLSGLFANAVLRAQHLHQLAADTFKEFERTYIPEGQRYSIQNTQVAFCFSETIPAPTGKNEAQQKSDLELLRISLLLIQSWLGPLQFLSRVFTNSLVFGTSDRVYEKLKDLEEGILALMRELEDGTPRAGQILKQTYDKFDTNMRSDDALLKNYGLLSCFRKDLHKTETYLRVMKCRRFGEASCAF
Question: With B4 as the molecule, how does the “increase in growth rate” value (salmonids) read?
Answer: Its value is “two to three-fold increase in growth rate”.

B5: recombinant bST: recombinant bovine somatotropin (Monsanto Co.) (protein, UniProt P01246 27-217, looked up)
Somatotropin: AFPAMSLSGLFANAVLRAQHLHQLAADTFKEFERTYIPEGQRYSIQNTQVAFCFSETIPAPTGKNEAQQKSDLELLRISLLLIQSWLGPLQFLSRVFTNSLVFGTSDRVYEKLKDLEEGILALMRELEDGTPRAGQILKQTYDKFDTNMRSDDALLKNYGLLSCFRKDLHKTETYLRVMKCRRFGEASCAF
Question: With B5 as the molecule, how does the body weight gain (rainbow trout) read?
Answer: Its body weight gain is “significantly induces increased body weight gain”.
